Measurements reported in patent US20130059772A1, “Use of Repeat Sequence Protein Polymers in Personal Care Compositions” (DANISCO US INC., priority 2003, published 2013).
Several values for one entry are separate records, joined by “and”; a condition that tells them apart may be missing. Equal values may be shown once.

What was measured:
[1] = Isoelectric point determination (IEF gel); type: physicochemical
Protocol: In this Example, experiments performed to determine the isoelectric point and cloud point of SELP47K (Example 1) are described. The isoelectric point of SELP47K was determined by electrophoresing 5 mg/ml SELP47K solution using Isoelectric Focusing Electrophoresis (IEF) gel and Novex electrophoresis apparatus along with protein standards markers.

[2] = Cloud point determination (turbidity at 300 nm, 20-80° C.); type: physicochemical
Protocol: The cloud point of SELP47K was determined by first preparing 0.1% and 1% solutions of polydispersed SELP 47K (Example 2) in three different buffers: 50 mM acetate pH 5; 50 mM Tris pH 7; 50 mM Tris pH 9. A 0.5 M NaCl salt solution was prepared in water and salt containing solutions were prepared using this stock solution. Samples were placed in quartz cuvettes and the cloud point determination was carried out using a Cary 300 spectrophotometer equipped with a thermal program and multiple cuvettes configuration. Turbidity measurements were made at 300 nm and the temperature was varied from 20-80° C.

[3] = Tensile mechanical properties of films (INSTRON Model 5564); type: physicochemical
Protocol: In this Example, experiments performed to determine tensile mechanical properties of SELP47K (Example 1 and 2) are described. Samples of SELP47K were prepared by freeze-drying purified SELP47K solution. The subsequent powder was re-dissolved in water to a solids concentration of approximately 5, 10 or 20%. These solutions were then mixed with plasticizers to an effective concentration of 1-3%. Plasticizers included in this study were polyethylene glycol 200, glycerin, and triethanolamine. Eleven milliliters of these solutions were poured into a large (6 inch square) polyethylene weigh boats and the solutions were allowed to dry either in an oven at 37° C. or room temperature for 1 to 3 days. Subsequent films were successfully peeled from the weigh boat with a spatula without any damage to the polymer film.
The films were then cut into tensile specimens using a very sharp fabric cutting wheel. The specimens were approximately 6 cm long and 2.5 cm wide. The gauge length for these samples (length of sample between tensile testing clamps) was set to 3 cm and the thickness of the sample was measured at 5 points along the gauge length using a digital thickness coating instrument. The thickness of the samples was recorded as the average of the 5 points and varied from 46.4 to 188.2 microns. Both the sample width and sample thickness were entered into an Instron software program (Merlin) to enable it to calculate the tensile strength and tensile modulus.
The samples were loaded into the jaws of an INSTRON® Model 5564 apparatus making sure the gauge length was always set to 3 cm and that the sample was not under any static load or stress. […] The results of the stress-strain measurements can be seen for four of the samples in FIG. 1. The elongation % of SELP47K was determined to be 8.4 for 20% SELP47K solution film made at room temperature (RM). The tensile strength was determined to be 65.9 megapascals (MPa), and the tensile modulus was determined to be 1716.50 MPa. The results of plastisizer-SELP47K films reveal strong correlation between concentration and mechanical properties measured. For 3% PEG200 containing SELP47K, the films elongation % reached 541.

facial skin [4] = test: Skin efficacy study: superficial facial line score (Packman and Gans); type: in vivo, human
Description: (§1) Eleven impaneled subjects (age 35-70 years) showing clear signs of facial skin aging were provided with a non-moisturizing soap, (AVEENO®), one week prior to the study and were instructed to use the provided soap to wash the face and were required to refrain from excessive UV exposure. After a seven-day conditioning phase, subjects were acclimated to the ambient temperature and humidity for thirty minutes. One side of the face of each subject was designated as the measurement side by random selection by computer. After 30-minute acclimation period, baseline digital photographs were taken, and instrumental measurements, skin replica samples and visual evaluations were made. Photographs were taken, with a Canfield Scientific Camera, of the full face, the periorbital area, and the temporal side of eye. Chromameter (Model CR300, Minolta) measurements were taken from the periorbital area directly under the eye (Chardon et al., Int. J. Cosmet. Sci., 13:191-208 [1991]). […]
Evaluation of superficial facial lines was performed by an expert evaluator using the scoring method described by Packman and Gans (supra). A 7% decrease in the superficial facial line score was assessed at the 30-minute post-treatment interval compared to baseline, which was statistically significant at the 91% confidence level (p=0.09).

facial skin [5] = test: Skin efficacy study: Cutometer Uv (viscoelasticity); type: in vivo, human; conditions: 5% aqueous solution applied once to face; 30 Minutes Post; baseline mean 0.09
Description: as §1, with “[1991]). Silflo replicas (CuDerm Corporation, Dallas, Tx) were made from the periorbital area adjacent to the temporal side of the eye (Grove et al., J. Am. Acad. Dermatol., 21:631-637 [1998]; and Sun et al 1997 IFSCC Conference, Mexico). Cutometer (SEM575, Courage and Khazaka, Germany) measurements were taken at the periorbital area at the upper portion of cheekbone. All measurements were performed in triplicate.” for “[1991]).”

[6] = Cloud point determination (turbidity at 300 nm, 20-80° C.); type: physicochemical; conditions: 0.05% solution in water
[7] = Example 1 Material [GC2596-26-A], film from 05% sol., 37 C.
[8] = Example 1 Material [GC2596-26-A], film from 05% sol., RM
[9] = Example 1 Material [GC2596-26-A], film from 10% sol., 37 C.
[10] = Example 1 Material [GC2596-26-A], film from 10% sol., RM
[11] = Example 1 Material [GC2596-26-A], film from 20% sol., 37 C.
[12] = Example 1 Material [GC2596-26-A], film from 20% sol., RM
[13] = Example 2 Material [GC2596-26-B], film from 10% sol., 37 C.

SELP47K: silk-elastin repeat sequence protein copolymer, head-[(GAGAGS)2(GVGVP)3GKGVP(GVGP)4(GAGAGS)2]13-tail (SEQ ID NO:19), 886 amino acids
Isoelectric Point ([1]; 5 mg/ml solution, IEF gel): 10.4 | pI of the protein ([1]; stated in production example): 10.5 | cloud point ([2]; 0.1% solution, 0.5 M NaCl, irrespective of pH): 50 °C | cloud point ([2]; 0.1% solution, pH 5): remained soluble even at 80 °C | cloud point ([2]; 0.1% solution, pH 9): 60 °C | cloud point ([2]; 1% solution in water): 70 °C | cloud point ([2]; 1% solution, 0.5 M salt, irrespective of pH): 55 °C | cloud point ([2]; 1% solution, 5-9 pH range): ~65 °C | cloud point ([2]; 1% solution, pH 5 buffer, 0.2 M salt): 65 °C | cloud point ([2]; 1% solution, pH 5 buffer, 0.5 M salt): below 60 °C | cloud point ([2]; 1% solution, pH 5 buffer, no salt): 75 °C | Tensile Strain [3, 7]: 2.6% | Tensile Strength [3, 7]: 19.83 MPA | Tensile Strain [3, 8]: 2.4% | Tensile Strength [3, 8]: 21.43 MPA | Tensile Strain [3, 9]: 3.6% | Tensile Strength [3, 9]: 62.06 MPA | Tensile Strain [3, 10]: 3.5% | Tensile Strength [3, 10]: 62.98 MPA | Tensile Strain [3, 11]: 8.6% | Tensile Strength [3, 11]: 74.14 MPA | Tensile Strain (elongation %) [3, 12]: 8.4% | Tensile Strength [3, 12]: 65.9 MPA and 65.90 MPA | Tensile Strain [3, 13]: 6.98% | Tensile Strength [3, 13]: 39.34 MPA | tensile modulus ([3]; film from 20% SELP47K solution made at room temperature (RM)): 1716.50 MPa | Superficial Facial Line Score, Mean (facial skin [4]; 5% aqueous solution applied once to face, 30 Minutes Post, baseline mean 40): 37 | decrease in the superficial facial line score (facial skin [4]; 5% aqueous solution, 30-minute post-treatment vs baseline, p=0.09): 7% | Cutometer Uv Score, Mean (facial skin [5]): 0.106 | cloud point [6]: remains soluble in water even at 80 °C
